Assay results published in patent US20040166183A1, “Methods and means for preventing or treating inflammation or pruritis” (priority 1998, published 2004).

T1: bovine pancreatic trypsin (Bos taurus, UniProt P00760)
T1 construct: purchased Serva; host or cells: bovine pancreas
T1 sequence (P00760 24-246): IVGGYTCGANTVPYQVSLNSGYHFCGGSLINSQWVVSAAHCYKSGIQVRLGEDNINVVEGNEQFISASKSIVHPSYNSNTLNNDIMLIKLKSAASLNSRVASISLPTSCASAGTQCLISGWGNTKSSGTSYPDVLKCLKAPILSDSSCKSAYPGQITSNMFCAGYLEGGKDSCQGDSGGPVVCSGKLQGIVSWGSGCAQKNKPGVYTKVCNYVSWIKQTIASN

T2: lesional elastase activity in psoriasis, contact dermatitis and atopic dermatitis (Homo sapiens, UniProt P08246)
T2 sequence (P08246 30-267): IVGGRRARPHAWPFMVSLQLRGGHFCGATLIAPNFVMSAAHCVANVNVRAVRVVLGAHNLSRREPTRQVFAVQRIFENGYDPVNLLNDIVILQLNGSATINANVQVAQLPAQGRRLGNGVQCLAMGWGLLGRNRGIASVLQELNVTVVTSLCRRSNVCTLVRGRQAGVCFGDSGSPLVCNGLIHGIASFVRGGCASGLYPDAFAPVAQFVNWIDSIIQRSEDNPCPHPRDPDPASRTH

T3: papaine (Carica papaya, UniProt P00784)
T3 construct: purchased Sigma
T3 sequence (P00784 134-345): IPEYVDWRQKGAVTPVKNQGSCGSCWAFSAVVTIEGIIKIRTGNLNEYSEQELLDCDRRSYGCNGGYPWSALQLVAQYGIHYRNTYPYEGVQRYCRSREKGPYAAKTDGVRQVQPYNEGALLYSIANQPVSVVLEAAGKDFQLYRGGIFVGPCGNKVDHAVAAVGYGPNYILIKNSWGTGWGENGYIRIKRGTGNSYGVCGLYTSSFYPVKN

B1: STI: Trypsin inhibitor II-from Soybean (T-9003; Sigma) (protein, UniProt P01070 25-205, looked up)
Trypsin inhibitor A: DFVLDNEGNPLENGGTYYILSDITAFGGIRAAPTGNERCPLTVVQSRNELDKGIGTIISSPYRIRFIAEGHPLSLKFDSFAVIMLCVGIPTEWSVVEDLPEGPAVKIGENKDAMDGWFRLERVSDDEFNNYKLVFCPQQAEDDKCGDIGISIDHDDGTRRLVVSKNKPLVVQFQKLDKESL
B2: STI-A: STI-type I-S Sigma T 9003 (protein, UniProt P01070 25-205, looked up)
Trypsin inhibitor A: B1 Trypsin inhibitor A
B3: ovomucoid: protease inhibitor, 1% (w/v) in 0.1 M phosphate buffer pH 7.6 (protein, UniProt P01005 25-210, looked up)
Ovomucoid: AEVDCSRFPNATDKEGKDVLVCNKDLRPICGTDGVTYTNDCLLCAYSIEFGTNISKEHDGECKETVPMNCSSYANTTSEDGKVMVLCNRAFNPVCGTDGVTYDNECLLCAHKVEQGASVDKRHDGGCRKELAAVSVDCSEYPKPDCTAEDRPLCGSDNKTYGNKCNFCNAVVESNGTLTLSHFGKC

How the values were obtained:
[1] = test system: therapy-resistant atopic dermatitis; settings: small study; cited from earlier work
[2] = test system: peri-stomal and peri-anal irritation caused by feces; settings: applied topically; cited from earlier work
[3] = target: T4, bovine pancreatic α-chymotrypsin (Bos taurus, UniProt P00766); assay: Effect of protease inhibitors on purified enzymes: chymotrypsin (azocasein); format: biochemical; settings: for % Inhibition of the proteolytic activity, chymotrypsin: STI, STI-A, -B, -C 0.125% end concentration, enzyme 0.02%, Trasylol undil., PJ: 1 g PJ powder mixed with 2 ml and with 4 ml buffer; for inhibition of α-chymotrypsin activity: preliminary experiments
T4 construct: purchased Merck, Sigma; host or cells: bovine pancreas
Procedure: (§1) Proteolytic activity was determined in the fecal homogenates in appropriate dilutions (up to 250-fold) in 0.1 M phosphate buffer (pH 7.6). Penicilline (0.1% w/v) was added to prevent bacterial growth. In the more recent inhibition tests no penicillin was used. Samples of 0.1 ml were incubated with 0.1 ml 1% (w/v) azocasein (Sigma) in phosphate buffer at 37° C. during 1 h. The reaction was stopped by addition of 0.2 ml 10% (w/v) trichloroacetic acid (TCA); after 10 min at room temperature unhydrolysed azocasein, bacteria and other particles were removed by centrifugation at 10,000 rpm during 10 min. Then 0.1 ml of the clear supernatant was transferred to 0.1 ml of 1 N NaOH in flatbottom 24 wells microplates. To the blank assays azocasein was added after incubation an addition of TCA. The absorption of the samples was measured at 450 nm and compared with standard curves obtained from solutions of azocasein. Proteolytic activity was expressed as milligrams azocasein hydrolysed during 1 h per gram dry or wet weight of sample. Each diluted sample was tested for other than enzymatic substrate hydrolysis after heating at 80° C. for 10 min. Spontaneous substrate hydrolysis was tested by incubation of the substrate with buffer.
(§2) In most of the experiments the inhibitor was added to feces (diluted 1:25 in buffer), mixed for 5-15 min and added to the substrate; PJ-powder was added to undiluted feces (1:1) and after mixing, diluted (1:25) with buffer. In each experiment controls were assayed (sterilized feces, sterilized inhibitors, buffer solutions).
bovine pancreatic α-chymotrypsin (Merck, Sigma)
(§3) All enzymes were used in a concentration of 0.2% (w/v) in buffer.
(§4) enzyme concentration was 0.02%, inhibitor concentration (end concentration) was 0.125%.

[4] = test system: bovine pancreatic elastase; assay: Effect of protease inhibitors on purified enzymes: elastase (azocasein); format: biochemical; settings: STI, STI-A, -B, -C 0.125% end concentration, enzyme 0.02%; Trasylol undil.; PJ: 1 g PJ powder mixed with 2 ml and with 4 ml buffer
Procedure: as §1, with “buffer. […]” for “buffer.”

[5] = target: T1, bovine pancreatic trypsin; assay: Effect of protease inhibitors on purified enzymes: trypsin (azocasein); format: biochemical; settings: for % Inhibition of the proteolytic activity, trypsin: STI, STI-A, -B, -C 0.125% end concentration, enzyme 0.02%, Trasylol undil., PJ: 1 g PJ powder mixed with 2 ml and with 4 ml buffer; for inhibition of trypsin activity: preliminary experiments
Procedure: as §1, §2
bovine pancreatic trypsin (Serva)
as §3, §4

[6] = test system: supernatant from feces of a patient with an ileum reservoir with a high proteolytic activity, on skin; assay: Skin test on the fore-arm with fecal supernatant and STI; format: in vivo, human; settings: 7 h incubation on fore-arm
Procedure: Skin tests were performed on the ventral part of the fore-arm. The following solutions were tested: 1. supernatant from feces of a patient with an ileum reservoir with a high proteolytic activity; 2. the same supernatant, but sterilised; 3. supernatant with 0.25% STI (w/v) and 4. 0.25% STI in buffer. Two hundred μl of each solution were placed on folded cambric on the skin and covered with plastic and adhesion wound pad. Total incubation time was 7 h, but after 3 and 5 h 100 μl buffer was added to each of the test patches to prevent dehydration.
After removing the pads and the cambric the skin was carefully cleaned with tap water and judged immediately and after 1-18 h.

[7] = target: T2, lesional elastase activity in psoriasis, contact dermatitis and atopic dermatitis; settings: in vitro; Wiedow et al, Dermatol 1992; cited from earlier work
[8] = test system: proteolytic activity in feces of ileostomy dog / pouch dog; assay: Inhibition of proteolytic activity in feces of ileostomy and pouch dogs (azocasein); format: biochemical
Procedure: Fecal samples from 20 colectomized dogs, purebred Beagles (Harlan) were collected. Three ileostomy groups were studied. In ten dogs a standard Brooke ileostomy was constructed by subtotal colectomy. In five dogs a valveless ileal reservoir (pouch) was fashioned by a side-to-side iso-antiperistaltic anastomosis. After a recovery period of 2 weeks a schedule of increasing periods of occlusion was started, except for 5 dogs. The maximum tolerable occlusion time was 2.5-3 h for the ileostomy group and 4-7 h for the reservoir group. In five dogs a continent ileostomy (Kock's pouch) was constructed, which was emptied 2-5 times per 24 hours by catheterization.
(§5) Feces was frozen and stored at −20° C. within 3 h of passage. […] Samples of 1 g were transferred to 24 vol of 0.1 M phosphate buffer pH 7.6 and homogenized (‘Stomacher’, Lab blender 400). Coarse particles were removed from the homogenates by gauze filtration (Utermohlen, refolded to 2 layers); these samples are further referred to as ‘fecal homogenates’.
as §1, with “Samples of 0.1 ml were incubated with 0.1 ml 1% (w/v) azocasein (Sigma) in phosphate buffer at 37° C. during 1 h.” left out
as §2

pronase = assay: Effect of protease inhibitors on purified enzymes: pronase (azocasein); format: biochemical; settings: STI-A, -B, -C 0.125% end concentration, enzyme 0.02%; PJ: 1 g PJ powder mixed with 2 ml and with 4 ml buffer
Procedure: as §1, with “buffer. […]” for “buffer.”

papaine = target: T3, papaine; assay: Effect of protease inhibitors on purified enzymes: papain (azocasein); format: biochemical; settings: STI-A, -B, -C 0.125% end concentration, enzyme 0.02%; PJ: 1 g PJ powder mixed with 2 ml and with 4 ml buffer
Procedure: as §1, with “buffer. […]” for “buffer.”

[9] = test system: proteolytic activity in feces of CD patients; assay: Inhibition of proteolytic activity in feces of CD patients (azocasein); format: biochemical, human; settings: n = 4, inhibitor added to feces 1:2000 diluted, 20 h incubated with substrate
Text: Fecal samples from twenty-seven patients with Crohn's disease (CD) were studied. Twelve patients, aged 27-58 years, had undergone intestinal surgery 3-12 years previously; locations of the resections were terminal ileum, ileum and caecum, and colon. A second group of patients was not operated; the principal sites of inflammation were ileum, ileum and colon, and colon. The diagnosis CD was established with the usual clinical, radiological and histopathological critria. All patients were outpatients.
as §5
Proteolytic activity was determined in the fecal homogenates in appropriate dilutions (up to 250-fold) in 0.1 M phosphate buffer (pH 7.6). Penicilline (0.1% w/v) was added to prevent bacterial growth. In the more recent inhibition tests no penicillin was used. […] The absorption of the samples was measured at 450 nm and compared with standard curves obtained from solutions of azocasein. Proteolytic activity was expressed as milligrams azocasein hydrolysed during 1 h per gram dry or wet weight of sample. […]

[10] = Ileostomy dog, n = 1*, inhibitor added to feces 1:2000 diluted, 20 h incubated with substrate, STI 1%
[11] = dog, n = 3°, inhibitor added to feces diluted 1:100, 2 h incubated, STI 1%

Molecule | % Inhibition of the proteolytic activity, chymotrypsin [3] [%] | % Inhibition of the proteolytic activity, elastase [4] [%] | % Inhibition of the proteolytic activity, trypsin [5] [%] | % inhibition of the proteolytic activity [8, 10] [%] | % inhibition of the proteolytic activity [8, 11] [%] | inhibition of α-chymotrypsin activity [3] | inhibition of trypsin activity [5] | also measured
alpha1-proteinase inhibitor: protease inhibitor cited from the literature | – | – | – | – | – | – | – | effect on therapy-resistant atopic dermatitis [1]: wound healing effect
sucralfate | – | – | – | – | – | – | – | peri-stomal and peri-anal irritation caused by feces [2]: reduce
B1 | 99 | 15 | 99 | 93 | 84 | – | – | skin reaction ([6]; location 3: fecal supernatant with 0.25% STI (w/v), supernatant alone: moderate redness, papulas, some vesiculas): slight redness that disappeared within 60 min; skin reaction ([6]; location 4: 0.25% STI in buffer): No reaction; effect on lesional elastase activity [7]: inhibitotory effect; % inhibition of the proteolytic activity ([8]; STI 0.25%, dog, n = 3°, feces diluted 1:100, 2 h incubated): 63%; % inhibition of the proteolytic activity ([8]; STI 0.5%, dog, n = 3°, feces diluted 1:100, 2 h incubated): 61%; % inhibition of the proteolytic activity ([8]; STI 0.75%, dog, n = 3°, feces diluted 1:100, 2 h incubated): 45%; inhibition of the proteolytic activity ([8]; STI in a concentration of 1% (w/v)): > 80%
B2 | 80 | 50 | 100 | – | – | larger part | larger part | % Inhibition of the proteolytic activity, pronase (pronase): 0%; % Inhibition of the proteolytic activity, papain (papaine): 0%
B3 | – | – | – | 93 | 84 | larger part | larger part | % inhibition of the proteolytic activity ([8]; dog, n = 1†, undiluted feces + inhibitor (3 + 1), mixing for 2 h, then diluted 1:100): 52%; % inhibition of the proteolytic activity [9]: 68%
